Data reported in patent CN112279916A (DINGFU BIOTARGET CO LTD, dated 2021).

Target: T1, hIL13RA1-EGFP (细胞表面hIL13RA1, HEK293细胞) (human, UniProt P78552 22-427)
T1 construct: also called 人IL13RA1; not shown: enhanced green fluorescent protein EGFP, UniProt C5MKY7
T1 sequence (looked up): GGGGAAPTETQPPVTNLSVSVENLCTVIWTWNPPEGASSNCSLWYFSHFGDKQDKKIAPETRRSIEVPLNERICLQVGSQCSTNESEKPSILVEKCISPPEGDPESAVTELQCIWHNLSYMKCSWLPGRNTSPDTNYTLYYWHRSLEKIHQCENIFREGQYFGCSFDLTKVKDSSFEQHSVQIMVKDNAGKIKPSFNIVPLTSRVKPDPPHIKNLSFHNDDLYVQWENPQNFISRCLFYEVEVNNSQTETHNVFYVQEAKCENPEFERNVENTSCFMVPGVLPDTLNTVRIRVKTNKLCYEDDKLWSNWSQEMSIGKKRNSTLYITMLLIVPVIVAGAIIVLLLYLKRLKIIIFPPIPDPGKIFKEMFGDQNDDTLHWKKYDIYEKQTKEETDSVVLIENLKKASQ
Experiment: FACS on hIL13RA1-EGFP HEK293 cells, 2 μg antibody, secondary antibody anti-hIg-PE

B1: anti-hIL13RA1 scFv抗体 (Fc fusion)
scFv: QVQLQQSGPGLVKPSQTLLITCAISGDSVSSNSAAWNWIRQSPSGSLEWLGRTYYRSKWYSHYAVSVTGRMTINSDSSKNQFSLQLDSVTPEDMAIYYCAREEVAGRGSFDFWGQGTLVTVSSGILGSGGGGSGGGGSGGGGSDIQLTQSPSFLSASVGDRVTITCRASQSISKNLVWYQQKPGKAPKLLIYSASTLQSGVPSRFSGSGSGTDFTLTISSLQPEDCALYFCQQAHSFPVTFGQGTRLEIK
notes: also called anti-IL13RA1 35#; IL13RA1抗体; not shown: human IgG1-Fc domain, UniProt P01857 residues 104-330
Q: Does B1 bind?
A: binds
